From the supplement of paper PMC12667976
± gives the standard error.

B1: library; numbered along this chain (parent)
chain: MATDAALRRLLRLHRTEIAVAVDSAFPLLHALADHDVVPEDKFQETLHLKEKEGCPQAFHALLSWLLTQDSTAILDFWRVLFKDYNLERYGRLQPILDSFPKDVDLSQPRKGRKPPAVPKALVPPPRLPTKRKASEEARAAAPAALTPRGTASPGSQLKAKPPKKPESSAEQQRLPLGNGIQTMSASVQRAVAMSSGDVPGARGAVEGILIQQVFESGGSKKCIQVGGEFYTPSKFEDSGSGKNKARSSSGPKPLVRAKGAQGAAPGGGEARLGQQGSVPAPLALPSDPQLHQKNEDECAVCRDGGELICCDGCPRAFHLACLSPPLREIPSGTWRCSSCLQATVQEVQPRAEEPRPQEPPVETPLPPGLRSAGEEVRGPPGEPLAGMDTTLVYKHLPAPPSAAPLPGLDSSALHPLLCVGPEGQQNLAPGARCGVCGDGTDVLRCTHCAAAFHWRCHFPAGTSRPGTGLRCRSCSGDVTPAPVEGVLAPSPARLAPGPAKDDTASHEPALHRDDLESLLSEHTFDGILQWAIQSMARPAAPFPS

Variants of: B1
Experiment: AIRE transcriptional activation functional score (insulin promoter-GFP; nonsense median 0, synonymous median 1) (normalised score); higher = higher AIRE activity (more reporter activation)
Settings: with insulin promoter-GFP reporter in HEK293
Experimental: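 Deep mutational scan of full-length human AIRE (codon-optimized cDNA, DT-POPCode NNN libraries over three regions) integrated at a Bxb1 landing pad in HEK293 cells carrying an insulin core promoter-GFP reporter at a Flp-In site. Cells were sorted for the top 10% GFP about 14 days after transfection. Variant frequency log-ratios (select vs non-select, TileSeq) were rescaled so that the nonsense median is 0 and the synonymous median is 1, then averaged over biological replicates.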

AIRE transcriptional activation functional score of substitutions, site by site:
L97: M 0.762 ± 0.19; F 1.29 ± 0.34; N -0.0633 ± 0.093; R 0.805 ± 0.28; I -0.239 ± 0.83; G -0.102 ± 0.52; Q -0.412 ± 0.14; A -0.272 ± 0.34; C 0.164 ± 0.14; V 0.394 ± 0.37; Y 2.69 ± 0.14; D 0.828 ± 0.47; H 2.81 ± 0.29; W -1.69 ± 0.58; P 0.384 ± 0.59; T -0.118 ± 0.59; S -0.186 ± 0.55; E -2.05 ± 0.62
Y90: G -0.388 ± 0.57; F 0.00136 ± 0.15; T 0.376 ± 0.48; V 0.153 ± 0.61; N 0.194 ± 0.62; R 0.13 ± 0.59; M 0.613 ± 0.15; A 0.366 ± 0.75; Q -0.537 ± 1.1; P 0.0423 ± 0.54; C 0.198 ± 0.28; D 0.18 ± 0.13; S -0.169 ± 0.5; E -0.843 ± 0.17; I -0.0337 ± 0.25; L 0.0613 ± 0.22; K -0.475 ± 0.32; W -0.215 ± 0.059; H 0.364 ± 0.19
E88: V 0.181 ± 0.089; D 0.357 ± 0.23; S 0.402 ± 0.96; M 0.132 ± 0.046; Q 1.91 ± 1.3; W 0.779 ± 0.24; R 2.71 ± 0.41; K 0.437 ± 0.19; L 0.861 ± 0.31; I 0.434 ± 0.27; A 1.18 ± 0.46; F 0.0961 ± 0.24; C 0.444 ± 0.18; G -0.0199 ± 0.27; T 1.95 ± 0.23
K102: E 1.25 ± 0.48; P -1.25 ± 0.1; D 0.758 ± 0.45; L 0.643 ± 0.63; F 1.34 ± 0.057; I 1.56 ± 0.26; R 2.19 ± 0.56; W 1.77 ± 0.18; A -0.872 ± 0.13; M 0.607 ± 0.14; H -1.63 ± 1.5; Q 2.65 ± 0.86; V 0.889 ± 0.42; Y 1.3 ± 0.33; S 0.749 ± 0.77; N 1.44 ± 0.56; G 0.563 ± 0.55; T 1.28 ± 0.56; C 0.948 ± 0.33
Q94: K 1.21 ± 0.32; A 1.44 ± 0.23; N -0.193 ± 0.58; C -0.262 ± 0.46; M 1.89 ± 0.18; D 0.228 ± 0.32; L 0.662 ± 0.36; Y 0.209 ± 0.094; T 0.511 ± 0.44; G 0.865 ± 0.84; V 1.42 ± 0.51; I 1.17 ± 0.84; F 0.133 ± 0.15; R 1.65 ± 0.54; E 0.0511 ± 0.28; P 0.0425 ± 0.51; S 0.266 ± 0.3; W 1.53 ± 0.47; H 0.885 ± 0.24
L87: P 0.0832 ± 1.1; Q 0.462 ± 0.19; F -0.159 ± 0.11; T 0.00113 ± 0.16; E 1.49 ± 0.05; S 0.0056 ± 0.76; R 1.14 ± 0.33; G 0.476 ± 2.1; W -0.816 ± 0.6; I 1.66 ± 0.18; D 0.374 ± 0.27; N 0.531 ± 0.19; H -0.266 ± 0.27; Y -0.162 ± 0.25; V 0.869 ± 0.25
P95: T 1.34 ± 0.46; E 0.792 ± 0.26; I 0.95 ± 0.28; C 0.979 ± 0.17; K 0.336 ± 0.083; V 1.12 ± 0.31; A 1.12 ± 0.54; M 1.41 ± 0.41; Y 1.97 ± 0.6; D 0.444 ± 1.1; F 1.19 ± 0.25; N 1.56 ± 0.42; Q 1.61 ± 0.48; L 1.38 ± 0.33; G 1.01 ± 0.66; R 0.995 ± 0.8; S 0.715 ± 0.46; H 0.425 ± 0.95; W 0.55 ± 0.12
I96: N 0.24 ± 0.24; R 0.0358 ± 0.43; Q -1.73 ± 0.64; M -0.371 ± 0.17; P -0.0986 ± 0.36; A -0.165 ± 0.33; G -0.689 ± 0.54; L 0.547 ± 0.3; S -0.438 ± 0.35; E 0.112 ± 0.27; T -1.01 ± 0.37; H 1.08 ± 0.16; C -0.194 ± 0.18; D -0.0149 ± 0.2; F 0.253 ± 0.16; K 0.201 ± 0.52; Y 0.139 ± 0.17; W -0.358 ± 0.16; V 1.14 ± 0.26
P101: N 0.226 ± 0.17; R 0.861 ± 0.6; H 1.17 ± 0.39; F -0.111 ± 0.049; M 0.0755 ± 0.13; W -5.52 ± 1.2; A 0.415 ± 0.2; S -0.303 ± 0.31; I -0.0207 ± 0.17; T -0.239 ± 0.52; Y 0.166 ± 0.27; V -1.95 ± 0.24; L 0.222 ± 0.29; D 0.335 ± 0.054; G 0.302 ± 0.13
L93: P 0.0133 ± 0.58; W 0.0522 ± 0.035; H -0.023 ± 0.32; R 0.0258 ± 0.41; T -0.0548 ± 0.35; M -0.0479 ± 0.027; C -0.0574 ± 0.11; A 0.124 ± 0.2; V 0.0157 ± 0.17; F 0.229 ± 0.059; E 0.401 ± 0.37; Y -0.417 ± 0.15; K -0.329 ± 0.38; G -0.0131 ± 0.3; D -0.0637 ± 0.46; S -0.0816 ± 0.29; I 0.258 ± 0.25; N 0.43 ± 0.13; Q -0.189 ± 0.28
F100: K 0.809 ± 0.18; T -2.46 ± 0.24; P 1.03 ± 0.12; I 0.0995 ± 0.63; W 1.58 ± 0.18; V -0.124 ± 0.12; Q 1.26 ± 0.24; D -0.111 ± 0.43; Y -0.017 ± 0.36; H 0.644 ± 0.11; L 0.191 ± 0.33; M -0.57 ± 0.1; G -0.223 ± 0.34; R -0.588 ± 0.65; C 0.447 ± 0.15; S 0.172 ± 0.45; N 1.13 ± 0.16; A 0.229 ± 0.85; E -0.0797 ± 0.56
S99: D 0.205 ± 0.069; I 0.822 ± 0.33; E 0.0893 ± 0.067; V 0.813 ± 0.53; C 1.07 ± 0.23; P 1.51 ± 0.14; A -0.293 ± 0.049; L 0.541 ± 0.5; K 1.65 ± 0.14; W -0.319 ± 0.086; F 0.636 ± 0.18; G 0.382 ± 0.59; Y -0.311 ± 0.25; N 0.889 ± 0.3; R 0.357 ± 0.79; M 1.07 ± 0.094; Q -0.179 ± 0.092; H 0.569 ± 0.12
G91: D -0.369 ± 1.1; P 0.488 ± 0.62; K -0.415 ± 1.5; H -0.774 ± 0.27; E 1.71 ± 0.32; Y 2.5 ± 0.45; L 0.236 ± 0.57; I -0.00302 ± 1.2; S 1.19 ± 1; F 0.132 ± 0.17; V 0.766 ± 0.38; C -0.103 ± 0.58; A 0.266 ± 0.29; R 1.22 ± 0.57; T 0.431 ± 0.56; M 1.02 ± 0.041; W 1.54 ± 0.096
D105: G 0.621 ± 0.46; F 0.419 ± 0.4; Q -0.785 ± 0.28; K 0.591 ± 0.051; R 0.481 ± 0.63; V 0.6 ± 0.28; E 0.837 ± 0.3; C 0.824 ± 0.051; A 1.52 ± 0.28; H 0.701 ± 0.8; Y 1.72 ± 0.11; S -0.0361 ± 0.14; T 0.553 ± 0.56; N 0.431 ± 0.72; L 0.724 ± 0.18
R92: D 0.169 ± 0.97; L -0.166 ± 0.38; I -0.385 ± 0.42; A -0.0922 ± 0.45; V -0.0193 ± 0.75; G 0.724 ± 0.54; P -0.2 ± 0.47; W 0.13 ± 0.17; Y -0.675 ± 0.61; F 0.28 ± 0.39; E -0.432 ± 0.48; Q 0.461 ± 0.085; C 0.489 ± 0.17; S 0.275 ± 0.63; T -0.129 ± 0.97; H 0.298 ± 0.23
D103: I 0.368 ± 0.25; M -0.761 ± 0.037; G 1.32 ± 0.3; L 0.32 ± 0.57; V 0.319 ± 0.28; C 1.14 ± 0.27; Y 0.675 ± 0.25; S 1.85 ± 0.66; H 0.857 ± 0.87; Q 0.412 ± 0.12; K 0.633 ± 0.14; E 1.66 ± 0.41; P -0.105 ± 0.42; F 0.826 ± 0.13; W 0.822 ± 0.55; R 0.339 ± 0.51; T 0.146 ± 0.44; N 0.59 ± 0.45; A 0.291 ± 0.44
V104: H -0.483 ± 0.36; G -0.0739 ± 0.33; E 0.823 ± 0.34; I 0.904 ± 0.21; C 0.343 ± 0.48; P 0.45 ± 0.086; D -0.387 ± 0.14; Y 0.986 ± 0.42; K -0.552 ± 0.34; T 0.284 ± 0.14; Q 1.13 ± 0.11; R 0.389 ± 0.5; F 1.15 ± 0.26; L 0.894 ± 0.53; S -0.0986 ± 0.53; A -0.013 ± 0.14; N -0.244 ± 0.28
D98: T -0.235 ± 0.47; N 0.841 ± 0.68; E 0.0399 ± 0.17; M 1.55 ± 0.044; S 0.163 ± 1.1; R 0.621 ± 0.47; A 0.771 ± 0.59; I 0.501 ± 0.42; L 0.703 ± 0.56; V 0.341 ± 0.23; W -0.885 ± 0.15; F 0.239 ± 0.16; Q 2.07 ± 0.15; P 0.632 ± 0.26; K -0.443 ± 0.084; H 1.3 ± 0.26; C 0.078 ± 0.41; Y 0.0432 ± 1.2; G -0.489 ± 0.61
R89: C 0.253 ± 0.36; L -0.165 ± 0.72; W 0.927 ± 0.079; M -2.04 ± 0.26; G 0.255 ± 0.42; Q 0.475 ± 0.15; P -1.08 ± 0.27; A 0.812 ± 0.13; V -3.54 ± 0.25; F 1.93 ± 0.058; S 1.8 ± 0.34; H 0.994 ± 0.18
L106: D 0.107 ± 1.1; E 0.17 ± 0.11; C -0.159 ± 0.31; F 0.883 ± 0.41; A -0.169 ± 0.18
